Experimental data published in the nanobody polyreactivity screen of Harvey et al. (2022).

Test: yeast display, Sf9 membrane polyspecificity reagent, FACS + sequencing; frameworks hold sequencing errors
Outline: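 A synthetic nanobody library was expressed on Saccharomyces cerevisiae BJ5465 by galactose induction for 36–48 hours. The library was stained for 1 hour at 4 °C with 10% biotinylated, detergent-solubilized Sf9 membrane reagent and enriched with streptavidin microbeads before FACS. Low and high (top ~1%) gates were set on anti-HA fluorescence for expression and streptavidin fluorescence for reagent binding, and each polyreactivity label reflects the gate of origin.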

Row | Sequence | polyreactivity (PSR sort gate)
1 | QVQLVESGGGLVQAGGSLRLSCAASGFIFADYTMGWSRQAPGQERELVAVITSGGSTHYADSVKGRFTISRDNAKNTVYLQMNSLKPEDTAVYYCAARSYRPTRGDYWGQGTKVTVSS | high polyreactivity
2 | QVQLVESGGGLVQAGGSLRLSCAASGFIFAEYAMGWYRQAPGKEREFVASITYSGGRTYYADSVKGRFTISRDNAKNTVYLQMNSLKPEDTAVYYCATARYRYHYYSWGQGTQVTVSS | high polyreactivity
3 | QVQLVESGGGLVQAGGSLRLSCAASGFIFAFNAMGWYRQAPGKEREFVASITGSSDSTYYADSVKGRFTISRDNAKNTVYLQMNSLKPEDTAVYYCAADPASSYGKYSYYYWGQGTQVTVSS | high polyreactivity
4 | QVQLVESGGGLVQAGGSLRLSCAASGFIFAGYAMGWYRQAPGKERELVAAINRNGRSTYYADSVKGRFTISRDNAKNTVYLQMNSLKPEDTAVYYCNARSFARIGAGKGDYWGQGTQVTVSS | high polyreactivity
5 | QVQLVESGGGLVQAGGSLRLSCAASGFIFAKYAMGWYRQAPGKERELVAAITSGGSTNYADSVKGRFTISRDNAKNTVYLQMNSLKPEYTAVYYCNRGFDWWYRYRHYDYWGQGTQVTVSS | low polyreactivity
6 | QVQLVESGGGLVQAGGSLRLSCAASGFIFALYTMGWYRQAPGKERELVARIRGGGRTNYADSVKGRFTISRDNAKNTVYLQMNSLKPEDTAVYYCNARKTVGMDYWGQGTQVTVSS | low polyreactivity
7 | QVQLVESGGGLVQAGGSLRLSCAASGFIFAQNAMGWYRQAPGKEREFVAAISSRGSRTYYADSVKGRFTISRDNAKNTVYLQMNSLKPEDTAVYYCAASRRTRSMNYWGQGTQVTVSS | high polyreactivity
8 | QVQLVESGGGLVQAGGSLRLSCAASGFIFARNAMGWYRQAPGKERELVAVISTRGRTYYADSVKGRFTISRDNAKNTVYLQMNSLKPEDTAVYYCNADKVIGYDYWGQGTQVTVSS | high polyreactivity
9 | QVQLVESGGGLVQAGGSLRLSCAASGFIFARYAMGWYRQAPGKERELVAAISSSGSSSYYADSVKGRFTISRDNAKNTVYLQMNSLKPEDTAVYYCAAKDSKYRNSPLYNYWGQGTQVTVSS | high polyreactivity
10 | QVQLVESGGGLVQAGGSLRLSCAASGFIFARYAMGWYRQAPGKERELVASITRRGGSTYYADSVKGRFTISRDYEKITVYLQMNSLKPEDTAVYYCARPNLLSGDYWGQGTQVTVSS | high polyreactivity
11 | QVQLVESGGGLVQAGGSLRLSCAASGFIFARYAMGWYRQAPGKERELVATISYTGGRRYYADSVKGRFTISRDHANNTVYLQINSLKPEDTAVYYVNAVYSYDRQRHEYWGQGTQVTVSS | high polyreactivity
12 | QVQLVESGGGLVQAGGSLRLSCAASGFIFASYAMGWYRQAPGKERELVAAISSSGGRTYYADSVKGRFTISRDNAKNTVYLQMNSLKPEDTAVYYCAAPRIYIPAEYYSWGQGTQVTVSS | high polyreactivity
13 | QVQLVESGGGLVQAGGSLRLSCAASGFIFASYAMGWYRQAPGKERELVAAISYRGGTTYYADSVKGRFTISRDNAKNTVYLQMNSLKPEDTALYYCAADSPENRYNYWGQGTQVTVSS | high polyreactivity
14 | QVQLVESGGGLVQAGGSLRLSCAASGFIFASYAMGWYRQAPGKERELVAAITQSRGITYYADSVKGRFTISRDNAKNTVYLQMNSLKPEDTAGYYCNTPLLKRTSRGRERNYWGQGTQVTVSS | low polyreactivity
15 | QVQLVESGGGLVQAGGSLRLSCAASGFIFASYAMGWYRQAPWKERELVAAISYRGGTTYYADSVKGRFTISRDNAKNTVYLQMNSLKPEDTAVYYCAADSPENRYNDWGQGTQVTVSS | high polyreactivity
16 | QVQLVESGGGLVQAGGSLRLSCAASGFIFATNAMGWYRQAPGKEREFVAAITSGGSTYYADSVKGRFTISRDNAKNTVYLQMNSLKPEDTAVYYCNARTYSRVTRQTYRYRPYDYWGQGTQVTVSS | high polyreactivity
17 | QVQLVESGGGLVQAGGSLRLSCAASGFIFAYNAMGWYRQAPGKEREFVAAINSGGDSTYYADSVKGRFTISRDYANNTVYLQMNSLKPEDTAVYSCAAVIGNKRYYYWGQGTQVTVSS | low polyreactivity
18 | QVQLVESGGGLVQAGGSLRLSCAASGFIFAYNAMGWYRQAPGKERELVAAISWSGGSTYYADSVKGRFTISRDNAKNTVYLQMNSLKPEDTAVYYCNKYIRYPFKRYGYWGQGTQVTVSS | high polyreactivity
19 | QVQLVESGGGLVQAGGSLRLSCAASGFIFAYNAMGWYRQAPGKERELVAAISWSGGSTYYADYVKGRFTISRDNAKNTVYLQMNSLKPEDTAVYYCNAVSYYGARYDYWGQGTQVTVSS | high polyreactivity
20 | QVQLVESGGGLVQAGGSLRLSCAASGFIFAYYAMGWYRQAPGKERELVAAISSRGGTYYADSVKGPFTISRDNAKNTVYLQMNSLKPEDTAVYYCAAASYTWVSLGYEYWGQGTQVTVSS | high polyreactivity
21 | QVQLVESGGGLVQAGGSLRLSCAASGFIFAYYAMGWYRQAPGKERELVAAITNSGGSTYYADSVKGRFTISRDNAKNTVYLQMNSLKPEDTAVYYCNALHRIRYTPSSRYDYWGQGTQVTVSS | low polyreactivity
22 | QVQLVESGGGLVQAGGSLRLSCAASGFIFAYYAMGWYRQEPGKERELVAAISSSGSTNYADSVKGRFTISRDNAKNTVYLQMNSLKPEDTAVYYCAADRVGGTPQAYVPSQFDYWGQGTQVTVSS | low polyreactivity
23 | QVQLVESGGGLVQAGGSLRLSCAASGFIFDAYAMGWYRQAPGKERELVAAIDSGGSTDYADSVKGRFTISRDNAKNTVYLQMNSLKPEDTAVYYCNAERAYLWWYNFDYWGQGTQVTVSS | low polyreactivity
24 | QVQLVESGGGLVQAGGSLRLSCAASGFIFDDNAMGWYRQAPGKERELVAAITSGGGSTYYADSVKGRFTISRDNAKNTVYLQMNSLIPEDTAVYYCNAVPSQHDEFDYWGQGTHVTVSS | low polyreactivity
25 | QVQLVESGGGLVQAGGSLRLSCAASGFIFDDYAMGWNRQAPGKERELVAAITDSGDGTDYADSVKGRFTISRDNAKNTVYLQMNSLKPEDTAVYYCAAGLWYSYDYWGQGTQVTVSS | high polyreactivity
26 | QVQLVESGGGLVQAGGSLRLSCAASGFIFDFYAMGWYRQAPGKERELVATINSSGTTNYADSVKGRFTISRDNAKNTVYLQMNSLKPEDTAVYYCATVEYLGHYTYDYWGQGTQVTVSS | low polyreactivity
27 | QVQLVESGGGLVQAGGSLRLSCAASGFIFDKNAMGWYRQAPGKERELVAAISSGGGSTDYADAVKGRFTISRDNAKNPDYLHMNSLKPEDTAVYYCARYWDQLQQYVISFGRYGMDYWGQGTQVTVSS | high polyreactivity
28 | QVQLVESGGGLVQAGGSLRLSCAASGFIFDNNAMGWYRQAPGKERELVADISESGGSTYYADSVKGRFTISRDNAKNTVYLQMNSLKPEDTAVYYCNADIESWYCEFDYWGQGTQVTVSS | low polyreactivity
29 | QVQLVESGGGLVQAGGSLRLSCAASGFIFDRYAMGWYRQAPGKERELVAAISSGGSTYYADSVKGRFTISRDNAKNTVYLQMNSLKPEDTAVYYCAAESWLNFIYEYDYWGQGTQVTVSS | low polyreactivity
30 | QVQLVESGGGLVQAGGSLRLSCAASGFIFDRYAMGWYRQAPGKERELVAAISWTGGSTYYADSVKGRFTISRDNAKNTVYLQMNSLKPEDTAVYYCAVEYSLVYWSGVVDLGYWGQGTQVTVSS | high polyreactivity
